Source: paper PMC10518009

Assays:
[1] = biological target: SARS-CoV-2 spike (RBD)-Fc (SARS-CoV-2) (UniProt P0DTC2); assay: ELISA; BPS Bioscience #79936 kit: plate coated with spike (RBD)-Fc, serial concentrations of test compound (200-12.5) added, kit completed as in its manual, luminescence
[2] = biological target: ACE2-His (human) (UniProt Q9BYF1); assay: ELISA; BPS Bioscience #79936 kit: ACE2-His held on a 96-well nickel-coated plate, test compound (25-200 µg/mL) incubated 60 min at room temperature, then spike (RBD)-Fc added for 60 min, anti-mouse Fc-HRP, chemiluminescence
ACE2-His (human), sequence (Q9BYF1 18-805): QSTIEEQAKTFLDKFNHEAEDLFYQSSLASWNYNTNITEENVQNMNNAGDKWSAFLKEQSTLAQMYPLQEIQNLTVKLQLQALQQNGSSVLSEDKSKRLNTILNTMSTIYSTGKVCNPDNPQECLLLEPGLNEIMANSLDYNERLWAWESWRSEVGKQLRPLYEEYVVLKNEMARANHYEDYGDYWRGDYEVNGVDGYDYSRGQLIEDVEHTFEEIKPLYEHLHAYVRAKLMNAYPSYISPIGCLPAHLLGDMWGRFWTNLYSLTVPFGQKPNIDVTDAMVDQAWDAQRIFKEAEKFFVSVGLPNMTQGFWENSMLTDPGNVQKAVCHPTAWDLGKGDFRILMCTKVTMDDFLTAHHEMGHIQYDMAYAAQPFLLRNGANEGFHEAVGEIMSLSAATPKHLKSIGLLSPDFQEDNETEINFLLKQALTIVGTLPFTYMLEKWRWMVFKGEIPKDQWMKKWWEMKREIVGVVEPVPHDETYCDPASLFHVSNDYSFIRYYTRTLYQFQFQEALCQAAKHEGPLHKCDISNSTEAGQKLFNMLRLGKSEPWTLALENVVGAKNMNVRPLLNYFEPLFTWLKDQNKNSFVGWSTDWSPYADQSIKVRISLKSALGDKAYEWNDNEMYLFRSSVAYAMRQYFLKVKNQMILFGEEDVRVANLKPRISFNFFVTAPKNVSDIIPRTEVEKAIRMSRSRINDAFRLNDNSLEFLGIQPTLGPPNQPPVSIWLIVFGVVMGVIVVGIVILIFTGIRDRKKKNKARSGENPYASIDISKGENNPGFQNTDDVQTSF

bovine lactoferrin (natural protein)
maximum percent inhibition (RBD neutralization) [1]: 94%

bovine lactoferrin (natural protein; other documents disagree on this pair)
maximum percent inhibition of ACE2/spike at 200 mg concentration [2]: 33%
